Assay results reported in patent US20150344570A1 (published 2015).
Where a chain is given by its changes, count along the chain named. Names may count otherwise.

B1: H240-Kn037/H240-Hl036/L73-k0 (antibody, human IgG1, kappa)
heavy 1: QDQLVQSGAEVKKPGASVKVSCKASGFNIKDTYIQWVRQAPGQGLEWMGRIDPLRKQTKYREKFEGRVTITADTSTNTAYMELSSLRSEDTAVYYCVRSGREFDYWGQGTLVTVSSASTKGPSVFPLAPSSKSTSGGTAALGCLVKDYFPEPVTVSWNSGALTSGVHTFPAVLQSSGLYSLSSVVTVPSSSLGTQTYICNVNHKPSNTKVDKKVEPKSCDKTHTCPPCPAPELLAGPDVFLFPPKPKDTLMISRTPEVTCVVVDVSHEDPEVKFNWYVDGVEVHNAKTKPREEQYNSTYRVVSVLTVLHQDWLNGKEYKCKVSNKALPAPEEKTISKAKGQPREPQVCTLPPSRDELTKNQVSLWCLVKGFYPSDIAVEWESNGQPENNYKTTPPVLDSDGSFFLYSKLTVDKSRWQQGNVFSCSVMHEALHNHYTQKSLSLSP
heavy 2: B1 heavy 1 with C348Y, D355C, W365S, L367A, Y406V
light: DIQMTQSPSSLSASVGDRVTITCRASQDIHKYIAWYQQKPGQAPRLLIQYTSTLQPGVPSRFSGSGSGTDYTFTISSLQPEDIATYYCLQYEQLRTFGGGTKVEIKRTVAAPSVFIFPPSDEQLKSGTASVVCLLNNFYPREAKVQWKVDNALQSGNSQESVTEQDSKDSTYSLSSTLTLSKADYEKHKVYACEVTHQGLSSPVTKSFNRGEC
notes: It says both H chains have G236A/S239D/I332E
B2: H240-afucosyl_G1d/L73-k0 (antibody, human IgG1, kappa)
heavy: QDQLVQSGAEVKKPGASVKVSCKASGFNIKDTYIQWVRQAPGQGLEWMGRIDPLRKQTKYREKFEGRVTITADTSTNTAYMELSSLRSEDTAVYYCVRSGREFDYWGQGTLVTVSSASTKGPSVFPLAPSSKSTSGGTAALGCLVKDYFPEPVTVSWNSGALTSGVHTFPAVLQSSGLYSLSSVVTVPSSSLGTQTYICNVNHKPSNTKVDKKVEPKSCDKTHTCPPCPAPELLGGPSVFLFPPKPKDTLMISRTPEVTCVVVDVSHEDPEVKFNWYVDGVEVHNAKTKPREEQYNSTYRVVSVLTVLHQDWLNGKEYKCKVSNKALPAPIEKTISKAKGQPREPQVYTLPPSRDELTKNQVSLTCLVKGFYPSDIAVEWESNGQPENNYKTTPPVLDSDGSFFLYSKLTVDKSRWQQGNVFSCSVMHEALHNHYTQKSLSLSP
light: B1 light
modifications: fucose removed from the N-linked sugar chain (afucosylated)
notes: also called afucosylated antibody
B3: H240-Kn205/H240-Hl212/L73-k0 (antibody, human IgG1, kappa)
heavy 1: B1 heavy 1 with L233Y, A235G, D238S, Y295W, S297C, E331I
heavy 2: B1 heavy 1 with A235G, E331I, K333V, C348Y, D355C, W365S, L367A, Y406V
light: B1 light
B4: H240-Kn204/H240-Hl211/L73-k0 (antibody, human IgG1, kappa)
heavy 1: B1 heavy 1 with L233Y, A235G, D238S, K289Y, Y295W, E331I
heavy 2: B1 heavy 1 with A235G, A329M, E331I, K333V, C348Y, D355C, W365S, L367A, Y406V
light: B1 light
B5: GpH7-A5/GpH7-HA5/GpL16-k0 (antibody, human IgG1, kappa)
heavy 1: not shown
heavy 2: QVQLVQSGAEVKKPGASVTVSCKASGYTFTDYEMHWIRQPPGEGLEWIGAIDPKTGDTAYSESFQDRVTLTADKSTSTAYMELSSLTSEDTAVYYCTRFYSYTYWGQGTLVTVSSASTKGPSVFPLAPSSKSTSGGTAALGCLVKDYFPEPVTVSWNSGALTSGVHTFPAVLQSSGLYSLSSVVTVPSSSLGTQTYICNVNHKPSNTKVDKKVEPKSCDKTHTCPPCPAPEYLGGPSVFLFPPKPKDTLMISRTPEVTCVVVDVSHEDPEVKFNWYVDGVEVHNAKTKPREEQYNSTYRVVSVLTVLHQDWLNGKEYKCKVSNKALRAPIEKTISKAKGQPREPQVYTLPPSRDELTKNQVSLTCLVKGFYPSDIAVEWESNGQPENNYKTTPPVLDSDGSFFLYSKLTVDKSRWQQGNVFSCSVMHEALHNHYTQESLSLSP
light: DIVMTQSPLSLPVTPGEPASISCQASESLVHSNRNTYLHWYLQKPGQSPQLLIYKVSNRFSGVPDRFSGSGSGTDFTLKISRVEAEDVGVYYCSQNTHVPPTFGQGTKVEIERTVAAPSVFIFPPSDEQLKSGTASVVCLLNNFYPREAKVQWKVDNALQSGNSQESVTEQDSKDSTYSLSSTLTLSKADYEKHKVYACEVTHQGLSSPVTKSFNRGEC
notes: Anti-glypican-3 IgG1 heterodimer; L234Y and P329R in H2
B6: GpH7-A48/GpH7-B3-06-09D/GpL16-k0 (antibody, human IgG1, kappa)
heavy 1: B5 heavy 2 with Y232L, D354K, H433R, E437K
heavy 2: not shown
light: B5 light
notes: Anti-glypican-3 IgG1 heterodimer; P329R in H1, S239D in H2
B7: GpH7-A5/GpH7-HA11/GpL16-k0 (antibody, human IgG1, kappa)
heavy 1: not shown
heavy 2: B5 heavy 2 with Y232L, S296A
light: B5 light
notes: Anti-glypican-3 IgG1 heterodimer; S298A and P329R in H2
B8: GpH7-A48/GpH7-B3-15-02A/GpL16-k0 (antibody, human IgG1, kappa)
heavy 1: B5 heavy 2 with Y232L, D354K, H433R, E437K
heavy 2: not shown
light: B5 light
notes: Anti-glypican-3 IgG1 heterodimer; P329R in H1, S298A in H2
B9: GpH7-A48/GpH7-B3-01-15Y/GpL16-k0 (antibody, human IgG1, kappa)
heavy 1: B5 heavy 2 with Y232L, D354K, H433R, E437K
heavy 2: not shown
light: B5 light
notes: Anti-glypican-3 IgG1 heterodimer; P329R in H1, L234Y in H2
B10: GpH7-A5/GpH7-HA18/GpL16-k0 (antibody, human IgG1, kappa)
heavy 1: not shown
heavy 2: B5 heavy 2 with Y232L, I330E
light: B5 light
notes: Anti-glypican-3 IgG1 heterodimer; I332E and P329R in H2
B11: GpH7-A5/GpH7-HA15/GpL16-k0 (antibody, human IgG1, kappa)
heavy 1: not shown
heavy 2: B5 heavy 2 with Y232L, A328L
light: B5 light
notes: Anti-glypican-3 IgG1 heterodimer; A330L and P329R in H2
B12: GpH7-A5/GpH7-HA6/GpL16-k0 (antibody, human IgG1, kappa)
heavy 1: not shown
heavy 2: B5 heavy 2 with Y232L, G234W
light: B5 light
notes: Anti-glypican-3 IgG1 heterodimer; G236W and P329R in H2
B13: GpH7-A48/GpH7-B3-03-20W/GpL16-k0 (antibody, human IgG1, kappa)
heavy 1: B5 heavy 2 with Y232L, D354K, H433R, E437K
heavy 2: not shown
light: B5 light
notes: Anti-glypican-3 IgG1 heterodimer; P329R in H1, G236W in H2

Target: T1, FcgRIIIaV (human, UniProt P08637 17-208)
T1 construct: extracellular domain; Polymorphic site after J. Clin. Invest; also called FcγRIIIa V; 3aV; not shown: His tag at the C terminus
T1 sequence (P08637 17-208 F176V limits assumed): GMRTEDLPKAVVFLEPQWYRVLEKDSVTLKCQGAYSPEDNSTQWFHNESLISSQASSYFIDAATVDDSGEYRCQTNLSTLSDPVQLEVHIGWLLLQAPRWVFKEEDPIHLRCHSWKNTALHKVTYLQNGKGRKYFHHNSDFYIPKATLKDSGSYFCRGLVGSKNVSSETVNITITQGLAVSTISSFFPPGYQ
Experiment: SPR (Biacore); KD of H240-Kn033/H240-Hl033/L73-k0 divided by KD of the variant
Experimental: (§1) Next, the amino acid at position 330 was examined. The A330M alteration has been introduced into H240-Hl076 of H240-Kn125/H240-Hl076/L73-k0. […] L73-k0 was used as the common antibody L chain. Binding of the produced variants to FcgRIa, FcgRIIaR, FcgRIIaH, FcgRIIb, FcgRIIIaF, and FcgRIIIaV was measured according to the method of Reference Example 8.
(§2) Analysis of interaction between objective antibody and the FcγR was carried out using Biacore T100 (GE Healthcare), Biacore T200, Biacore A100, and Biacore 4000. HBS-EP+ (GE Healthcare) was used as the running buffer, and the measurement temperature was set to 25° C. Chips produced by immobilizing the antigen peptide by the amine coupling method to a Series S sensor Chip CM5 (GE Healthcare), chips produced by allowing preliminarily biotinylated antigen peptides to interact with and immobilize onto a Series S Sensor Chip SA (certified) (GE Healthcare), chips produced by immobilizing Protein L (ACTIGEN, BioVision) to Series S Sencor Chip CM5 (GE Healthcare), or chips produced by immobilizing Protein A/G (Thermo Scientific) to Series S Sencor Chip CM5 (GE Healthcare) were used. Antibodies of interest were captured onto these chips, and allowed to interact to each FcγR diluted with running buffer. To regenerate and repeatedly use the chip, the antibodies captured onto the chip were washed off by reacting 10 mM glycine-HCl, pH 1.5.

First: B1
Second: B2
The “fold 3aV” value of the first is higher: 7.1 fold for the first, 7 fold for the second.

First: B3
Second: B4
The “fold 3aV” value of the first is higher: 11.4 fold for the first, 6.5 fold for the second.

Target: T2, FcgRIIb (human, UniProt P31994 43-217)
T2 construct: extracellular domain; also called FcγRIIb; 2b; not shown: His tag at the C terminus
T2 sequence (looked up): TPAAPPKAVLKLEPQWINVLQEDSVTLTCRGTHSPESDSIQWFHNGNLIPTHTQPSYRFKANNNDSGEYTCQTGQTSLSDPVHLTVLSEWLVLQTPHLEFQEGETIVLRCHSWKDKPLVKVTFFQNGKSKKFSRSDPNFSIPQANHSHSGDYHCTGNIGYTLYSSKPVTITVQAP
Experiment: as above
Experimental: as §1, §2

Going from B1 to B2, the “fold 2b” value falls from 8.7 fold to 1.3 fold.

Going from B3 to B4, the “fold 2b” value rises from 2.1 fold to 2.5 fold.

Target: T3, FcgRIIaR (human, UniProt P12318 34-217)
T3 construct: extracellular domain; also called FcγRIIa R; FcγRIIa type R; not shown: His tag at the C terminus
T3 sequence (looked up): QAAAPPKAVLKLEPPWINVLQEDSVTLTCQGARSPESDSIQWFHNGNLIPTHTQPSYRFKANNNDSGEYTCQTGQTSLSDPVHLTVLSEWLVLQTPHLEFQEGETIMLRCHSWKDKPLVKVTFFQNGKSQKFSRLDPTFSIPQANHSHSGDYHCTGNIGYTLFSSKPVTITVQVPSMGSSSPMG
Experiment: as above
Experimental: as §1, §2

Going from B1 to B2, the “fold 2aR” value falls from 25.5 fold to 1.5 fold.

B3 and B4 are the same in “fold 2aR” value: 1.2 fold for the first, 1.2 fold for the second.

Target: T4, FcgRIIaH (human, UniProt P12318 34-217)
T4 construct: extracellular domain; also called FcγRIIa H; FcγRIIa type H; not shown: His tag at the C terminus
T4 sequence (looked up): T3 sequence (looked up) with R134H
Experiment: as above
Experimental: as §1, §2

Going from B1 to B2, the “fold 2aH” value falls from 11.3 fold to 0.7 fold.

Compared with B3, B4 is lower in “fold 2aH” value: 1.4 fold for the first, 0.7 fold for the second.

Target: T5, FcgRIIIaF (human, UniProt P08637 17-208)
T5 construct: extracellular domain; Polymorphic site after J. Clin. Invest; also called FcγRIIIa F; 3aF; not shown: His tag at the C terminus
T5 sequence (P08637 17-208): as the sequence (P08637 17-208 F176V limits assumed) above, with V160F counted along it
Experiment: as above
Experimental: as §1, §2

Going from B1 to B2, the “fold 3aF” value falls from 13.8 fold to 3.7 fold.

Compared with B3, B4 is lower in “fold 3aF” value: 24.2 fold for the first, 20.7 fold for the second.

Target: T6, FcγRIIIa (human, UniProt P08637 17-208)
T6 construct: extracellular domain; also called FcgRIIIa; CD16A; not shown: His tag attached to the C terminus
T6 sequence (P08637 17-208): as the sequence (P08637 17-208 F176V limits assumed) above, with V160F counted along it
Experiment: SPR (Biacore), antibody captured on antigen-peptide chip, FcγR as analyte; relative binding amount
Text: The expression vectors for the respective H chains were combined in a way that each of the alterations L234Y, G236W, S298A, S239D, A330L, and I332E is present in the same H chain as P329R or in the different H chain from P329R, and the expression vector GpL16-k0 for the L chain was combined with them. Antibodies of interest were expressed and prepared according to the method described in Reference Example 1. The prepared antibodies were used to assay the FcγRIIIa-binding activity. The result of assessment using P329R on the direction of FcγRIIIa recognition by L234Y, G236W, S298A, S239D, A330L, and I332E is summarized in Table 12.
Analysis of interaction between objective antibody and the FcγR was carried out using Biacore T100 (GE Healthcare). HBS-EP+ (GE Healthcare) was used as the running buffer, and the measurement temperature was set to 25° C. Chips produced by immobilizing the antigen peptide by the amine coupling method to a Series S Sencor Chip CM5 (GE Healthcare), or alternatively, chips produced by allowing preliminarily biotinylated antigen peptides to interact with and immobilize onto a Series S Sensor Chip SA (certified) (GE Healthcare) were used. Antibodies of interest were captured onto an antigen peptide-immobilized chip, and allowed to interact to each FcγR diluted with running buffer. To regenerate and repeatedly use the chip, the antibodies captured on the chip were washed off by reacting 10 mM glycine-HCl, pH 1.5.

First: B5
Second: B6
The “FcγRIIIa BINDING ACTIVITY (relative)” value of the first is lower: 60 relative, GpH7-A5/GpH7-B3/GpL16-k0 = 100 for the first, 123 relative, GpH7-A5/GpH7-B3/GpL16-k0 = 100 for the second.

Going from B7 to B8, the “FcγRIIIa BINDING ACTIVITY (relative)” value falls from 84 relative, GpH7-A5/GpH7-B3/GpL16-k0 = 100 to 47 relative, GpH7-A5/GpH7-B3/GpL16-k0 = 100.

Compared with B9, B10 is higher in “FcγRIIIa BINDING ACTIVITY (relative)” value: 11 relative, GpH7-A5/GpH7-B3/GpL16-k0 = 100 for the first, 35 relative, GpH7-A5/GpH7-B3/GpL16-k0 = 100 for the second.

First: B11
Second: B12
The “FcγRIIIa BINDING ACTIVITY (relative)” value of the first is lower: 32 relative, GpH7-A5/GpH7-B3/GpL16-k0 = 100 for the first, 56 relative, GpH7-A5/GpH7-B3/GpL16-k0 = 100 for the second.

With B13 the “FcγRIIIa BINDING ACTIVITY (relative)” value was 13 relative, GpH7-A5/GpH7-B3/GpL16-k0 = 100.
